Reference: US7521047 (GPC BIOTECH, dated 2009)

T1: human MHC class II DR protein (DRA*0101/DRB1*0401), purified from PRIESS cells (human, UniProt P01903 26-254; P01911 30-266, limits assumed)
T1 construct: mature; also called HLA-DR protein; MHCII
T1 MHC II alpha: not shown
T1 MHC II beta: not shown

T2: HLA-DR (DRA*0101/DRB1*0401) on PRIESS cells (human, UniProt P01903 26-254; P01911 30-266)
T2 MHC II alpha: not shown
T2 MHC II beta: not shown


Assays:
[1] = target: T1, human MHC class II DR protein …; assay: BiaCore, Fab
[2] = target: T2, HLA-DR (DRA*0101/DRB1*0401) on PRIESS …; assay: cell-based or functional assay
[3] = target: HLA-DR on MHH-CALL-4 cells (human); assay: cell-based or functional assay
[4] = target: HLA-DR on MN-60 cells (human); assay: cell-based or functional assay
[5] = target: HLA-DR on BJAB cells (human); assay: cell-based or functional assay
[6] = target: HLA-DR on BONNA-12 cells (human); assay: cell-based or functional assay
[7] = target: T2, HLA-DR (DRA*0101/DRB1*0401) on PRIESS …; assay: cell-based or functional assay
[8] = target: chimeric 0401-IE class II molecule on cells of transgenic mice (human/murine chimera); assay: cell-based or functional assay
[9] = target: T1, human MHC class II DR protein …; assay: SPR (BIAcore), MHCII on CM5 chip
[10] = target: T1, human MHC class II DR protein …; assay: SPR (BIAcore), Fab, 8 preparations on 4 chips
[11] = target: T1, human MHC class II DR protein …; assay: ELISA, coated antigen, Fab 100 ng/well, read at 370 nm
Experimental: After washing in PBS the anti-human IgG F(ab')_2-peroxidase-conjugate at a 1:10,000 dilution in TBS (supplemented with 5% w/v non-fat drymilk/0.05% v/v Tween 20) was added to each well for 1 h. Final washes were carried out in PBS followed the addition the substrate POD (Roche).

[12] = target: T1, human MHC class II DR protein …; assay: BiaCore, Fab
[13] = target: T1, human MHC class II DR protein …; assay: SPR (BIAcore), chip density 4000 RU MHCII

Binder	Kd [1] [nM]	koff [1] [s⁻¹]	kon [1] [M⁻¹ s⁻¹]	maximum capacity to kill MHH-Call 4 cells [3] [%]	EC50 of cell killing, cross-linked Fab, bivalent agent [7] [nM]	Kd [9] [nM]	koff [9] [s⁻¹]	kon [9] [M⁻¹ s⁻¹]	other results
MS-GPC-8 Fab (Fab, V domains shown, Fab from pMx9_Fab: VH-CH1 with FLAG tag and STREP tag II, VL-CL; VH residue 1 is Q in Fab; also called B8-Fab; B8) VH: QVQLKESGPALVKPTQTLTLTCTFSGFSLSTSGVGVGWIRQPPGKALEWLALIDWDDDKYYSTSLKTRLTISKDTSKNQVVLTMTNMDPVDTATYYCARSPRYRGAFDYWGQGTLVTVSS VL: DIVLTQPPSVSGAPGQRVTISCSGSSSNIGSNYVSWYQQLPGTAPKLLIYDNNQRPSGVPDRFSGSKSGTSASLAITGLQSEDEADYYCQSYDMPQAVFGGGTKLTVLG	346	0.029	99000	65	31	346	0.029	99000	maximum killing capacity, cross-linked bivalent fragment [2]: 84%; cell killing, cross-linked Fab, 4 h [3]: > 50%; cell killing, cross-linked Fab, 4 h [4]: > 50%; cell killing, cross-linked Fab, 4 h [5]: > 50%; cell killing, cross-linked Fab, 4 h [6]: > 50%; IC50 of inhibition of IL-2 secretion from T-Hyb 1 cells [8]: 110 nM (half the concentration of the Fab); Maximum inhibition(%) of IL-2 secretion [8]: 100%; Kd [10]: 346 nM; koff [10]: 0.029 s⁻¹; kon [10]: 99000 M⁻¹ s⁻¹; ELISA signal [11]: 1.06
MS-GPC-8-17 Fab (Fab, V domains shown, Fab: VH-CH1 with FLAG tag and STREP tag II, VL-CL; VH residue 1 is Q in Fab; also called 7BA) VH: QVQLKESGPALVKPTQTLTLTCTFSGFSLSTSGVGVGWIRQPPGKALEWLALIDWDDDKYYSTSLKTRLTISKDTSKNQVVLTMTNMDPVDTATYYCARSPRYRGAFDYWGQGTLVTVSS VL: DIVLTQPPSVSGAPGQRVTISCSGSSSNIGSNYVSWYQQLPGTAPKLLIYDNNQRPSGVPDRFSGSKSGTSASLAITGLQSEDEADYYCQSYDFSVYVFGGGTKLTVLG	58.6	0.00548	96000	78	16	54.7	0.00548	100000	fold affinity improvement compared to MS-GPC-8/B8 [12]: 5 fold; Kd [13]: 54.7 nM; koff [13]: 0.00548 s⁻¹; kon [13]: 100000 M⁻¹ s⁻¹
